For six molecules, Kd results are on record in article PMC5823465 (PLoS Neglected Tropical Diseases, 2018).

Assay in all cases: ELISA; competition ELISA, KD in solution at equilibrium: serial dilutions of EDIII mixed with antibody at 0.2 nM, incubated overnight; unbound or singly bound antibody measured on Maxisorp plates coated with EDIII-DV1, detected with HRP rabbit anti-human IgG; mass action model adjusted for antibody bivalence
One test has as its target VIS513.
Test [1] deals with EDIII domain of the E protein, DENV1 HAW, wild type (Dengue virus type 1, strain Hawaii 1944 …, UniProt A0A097PIH4, strain). The settings on record: both partners purified.
For test [2], the target named is T1, EDIII domain of the E protein, DENV2 NGC, wild type (Dengue virus type 2, strain NGC …, UniProt A0A097PIE2, strain).
T1 construct: also called DENV2 NGC WT; DV2-NGC
The settings on record: both partners purified.

The target in test [3] is EDIII domain of the E protein, DENV3 H87, wild type (Dengue virus type 3, strain H87 …, UniProt A0A0U2UQM7, strain). The settings on record: both partners purified.

As a reminder, the Kd is the concentration at which binding is half-saturated. Read a high Kd as a looser complex. Take “EDIII domain of the E protein, DENV1 HAW, K310R (domain or fragment)”: the Kd in the test with VIS513 is 0.39 nM.

In the case of “EDIII domain of the E protein, DENV2 NGC, K310R (domain or fragment)”, the Kd with VIS513 is 0.79 nM. Turning to “EDIII domain of the E protein, DENV3 H87, K308R (domain or fragment)”, the Kd with VIS513 is 170 nM.

As for “EDIII domain of the E protein, DENV3 H87, L301S (domain or fragment)”, in the test with VIS513, the Kd amounted to 1.7 nM.

Regarding “EDIII domain of the E protein, DENV4 BC287, K310R (domain or fragment)”, the Kd with VIS513 stood at 618 nM.

B1: VIS513 (antibody, V domains shown)
VH: QVQLVQSGAEVKKPGASVKVSCKAGFNIKDVYMSWVRQAPEQGLEWMGRIDPENGDTKYDPKLQGRVTMTADTSTNTAYMELRSLRSDDTAVYYCARGWEGFAYWGQGTLVTVSS
VL: DIVMTQSPASLAVSLGQRATISCRASENVDKYGNSFMHWYQQKPGQPPKLLIYRASELQWGVPDRFSGSGSGTDFTLTISSLQAEDVAVYYCQRSNEVPWTFGQGTKLEIK
For B1, the Kd was less than 0.1 nM in test [1], less than 0.1 nM in test [2] and 1.5 nM in test [3].
